Here are results for two molecules from patent publication US20180265560A1 (CASE WESTERN RESERVE UNIVERSITY, published 2018).

Bridges are numbered along the chain shown (N, C = ends). Where no end group is shown, it is not given here.

Test [1] has as its target T1, A isoform of the insulin receptor (UniProt P06213-2 28-1370, limits assumed).
T1 construct: isoform A lacks exon 11; also called IR-A
The test can be described thus: competitive displacement of radiolabelled tracer, receptor on microtiter plates coated with AU5 IgG. On the procedure: The assay employed the A isoform of the insulin receptor. […] The protocol for assay of receptor-binding activities was as follows. Microtiter strip plates (Nunc Maxisorb) were incubated overnight at 4° C. with AU5 IgG (100 μl/well of 40 mg/ml in phosphate-buffered saline). Binding data were analyzed by a two-site sequential model.

For the next test, the target named is T2, Type 1 IGF-I receptor (UniProt P08069 31-1367, limits assumed).
T2 construct: also called IGF-1R; Type 1 insulin-like growth factor receptor
The test can be described thus: competitive receptor-binding assay, against wild-type human insulin as reference.

B1: SCI-57DP (ligand)
chain: FVNQHLCGSHLVEALYLVCGERGFFYTDPTEEGPRRGIVEQCCHSICSLEQLENYCN
modifications: disulfide 19-56, 42-47, 7-43
notes: Made in Pichia pastoris; the cleaved product has 57 residues with native disulfide bridges; also called SCI-2; Thermalin-biphasic
The Kd is the equilibrium constant for the complex coming apart. Read a high Kd as lower affinity. B1: in test [1], the Kd stood at 0.06 nM. For the same molecule, the “fold lower affinity than wild-type human insulin” value in the test with Type 1 IGF-I receptor was 5 fold.

B2: SCI-57PE (ligand)
chain: FVNQHLCGSHLVEALYLVCGERGFFYTPETEEGPRRGIVEQCCHSICSLEQLENYCN
modifications: disulfide 19-56, 42-47, 7-43
notes: Made in Pichia pastoris; the cleaved product has 57 residues with native disulfide bridges; also called SCI-1; Thermalin-biphasic
B2: binding in test [1] was characterised by a dissociation constant (Kd) of 0.08 nM.
